Laboratory results published in the DeepSol protein solubility set.

Assay: soluble on expression in E. coli; label from the status in PepcDB or PDB records

Soluble on expression in E. coli, not soluble:
MGSDKIHHHHHHMPIHLIWGDDAAARDHAIETLIGDVVDQAWSSINLSRLDGADAGQASQALAEARTPPFGSGGRLVLLQRSPFCNACPSELANRFEDVLDLIPETSHLVLCNPNKPDGRLRTTKALQKLVKLKQASEKSFLLPAIWDGAGQQELVERTARDLGLQLEPEATAALVEAIGNDSTRLTAELQKLALHADIRQESATENQSPTLIKAENVAALIEGMATNALQVGDSLLAGHAGEAIARLDALLDAGEPALRIVATLTGQIRGWLWVSLLEQQGERDVNVIAKAAGIGNPKRIYVMRKQLQGRPPQRFLTLLSRLLEVEAALKRGAIPTDAFRDGLLSTP
MGSDKIHHHHHHMPKHLYSLLVVNINMFEKEKEILAKRIAGEIVLSPDPGKTMRKWREIFGISQTELADYLGVSSSVISDYEGGRRKSPGASTIRKFVEALIEIDEKRGGNVIKAFSRTFSSEIPTSAILDIREFDIPVTVKDIVDAVKGEIVANPDLIDRKIYGYTVVDSIQAILEMSAEEFLKLYGWTTERALVFTKVTTGRSPMIAVRVQGLKPAMVVLHGVKRLDELAVKIAEKERVPLVVSKAENETELITGLRRLVTSI
MGSDKIHHHHHHMPKQTFFNLKDEKRQRIIDAAEREFSQCPLYESSINNIIKDAKIPRGSFYQYFDDLSDLYGYYFSLILEDIQENLIDSVQEADGDIFSAVKKYAGEYMKEIISGNHRDFYRNFFLGANISKRSKDGKHPGFDVYHSDRMKELRVNLKKEVNWKLLKVTNEKDQNMIQQLIMMIFFHSFANYFVHSNNTDSDPAEVQKEIERNLNWLEFGARRTEDK
MGSDKIHHHHHHMPKRPVRKPGVFARLEDLYTRMETAYNATAAAAGLTCTGCDDNCCRTHFRHHTRIEWAYLWKGMLSLSPERREAYLERAKDVVAQCDAALAAGVVPRVMCPLNDEGRCGLYKYRLMICRMHGTRNILRLPDGRTQVFRGCHRFDNCTAQFADADRPSLDRTPLYTELAKLEMEHLGPTAARQQRVDLTLAEMLVYGPPKP
MGSDKIHHHHHHMPLKSSYSDQLKKTDQSLIALLSDRISLLASEQPSLDEQLASVAPLLAQAGIPESVWAGVVNSCHASLTPKSAINHASPRQVTIIGGRGRMGRLFQEQLSLVGHNVSILEHEDWEYAEQLLSQAELVLVSVPIEHTVDVIKRAAKYLASNTALCDITSIKTQPTQAMLEHHCGPVMGLHPMFGPNIKSFLGQKVVVCPGRNDDSFQWLLDFLKSKGGELIVCTPEEHDRMMVIIQATQHFCRFSLGVFLAQARVEIEQSLTMSTPNYRQEIDIVKRLFAQNPNLCVDIMLATEERCNAISFLANTYSRLARLVARKDREALIKEFENTQSFFEGKINSFLQPLNTTALKRDFKPQNIGI
MGSDKIHHHHHHMPLRGGVTCRVPSGMWMVPPHCGVWVPGGMLHSNVATANARLFFLFIEPGAADLPNRCCTLSLSPLVRELIIELADQSEVATADSELMTTLLLSALSRMPVEHLHLPLTDEPRLARIASELADDPSDRSTMAQWARRVAMSENSLARLVQHQTGLTFGRWRQQLQLIIAIRSLASGATVQQVSGDLGYESVSAFITMFKKALGTSPSRYLRNFDR
MGSDKIHHHHHHMPNMGIEKLYVSQQLTDSAAGMTFTKPQYYKYVQELSLKPKVNSASAYAENRKVDQDTQFDSCDVSINLFQMTSSQRAFMLGQSLAGGGGAIGALNDKAPWITLLYKAPIKVDDTIYYRYGVIYKTQFQPPDDDYKTTEGKPDFSQVPKISGSAQPTEWSFKDGKLEKHPWEWHVDTCDPNCPENIDDTWFNSVSIPSLVTYGSLSLSASSPKDGATGISLDTKPSLTFNNPIMNATSILLYNVSDGATVNTTTSSDSSGKIITITPSTNLVANKNYVLVVQDVTDLYGQTLDTQLIRFTTATAAS
MGSDKIHHHHHHMPNQPLIFDTAIAKDKPENIRHPHNACPFCDPGQLTDIIAQDADRIWLLNKFPTLQATWQTIVIEAARHDGDIATYSSAQNRAVFTFALKHWQATIASGRFKSVLCYKNFGPHSGGSLRHPHMQIVGLMAADGYANVTAANLTGYSVLAVDQVQVTVSDRPIMGFVEINVAAPATAIAPLADAVQQVVQYTLNTYFHGQCDSYNLFFYPRDDQIVAKVVPLFNVSPYYIGYRLAQADTPKRMRAIAEEIRQQFERSNLAHSN
